Assay results taken from patent CN112741804A (SHANGHAI JUNSHI BIOSCIENCES CO LTD; JUNMENG BIOSCIENCES CO …, dated 2021).
Numbering of substitutions follows the chain as printed.

B1: JS003 (humanized anti-PD-L1 antibody, clone 30) (antibody, human IgG4 S228P, kappa, V domains shown)
VH: QGQLQESGPSLVKPSQTLSLTCTVSGDSITRGYWNWIRKHPGKGLEYIGYISYTGSTYSNLSLKSRVTISRDTSKNQYYLKLSSVTAADTAVYYCATSTGWLDPVDYWGQGTLVTVSS
VL: DIVMTQSPDSLAVSLGERATINCKASQNVDTSVAWFQQKPGQPPKALIYSASFRYSGVPDRFSGSGSGTDFTLTISSLQAEDVAVYFCQQYYGYPFTFGQGTKLEIKR
notes: Full humanized antibody; Tested from formulation no; 30; also called 人源化抗体30; 抗体30
B2: humanized anti-PD-L1 antibody 38 (clone 38) (antibody, V domains shown)
VH: B1 VH with H40P
VL: DIQMTQSPSSLSASVGDRVTITCRASQNVDTSVAWFQQKPGKAPKALIYSASFRYSGVPSRFSGSGSGTDFTLTISSLQPEDFATYFCQQYYGYPFTFGQGTKLEIK

Target: T1, human PD-L1 (programmed death-ligand 1), soluble protein (human, UniProt Q9NZQ7 19-238, limits assumed)
T1 construct: also called 人PD-L1; CD274
Test: ELISA, PD-L1 coated on plate, HRP anti-human IgG detection

T1 sequence (Q9NZQ7 19-238 limits assumed): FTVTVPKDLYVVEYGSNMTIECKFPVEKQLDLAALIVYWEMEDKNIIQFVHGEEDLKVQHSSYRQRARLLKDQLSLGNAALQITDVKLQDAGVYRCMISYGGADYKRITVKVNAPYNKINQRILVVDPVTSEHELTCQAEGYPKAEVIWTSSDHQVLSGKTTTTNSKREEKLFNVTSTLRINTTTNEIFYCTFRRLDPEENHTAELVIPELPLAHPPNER

Binder | EC50 [ng/mL]
B1 | 0.558
B2 | 0.837
